Test results from paper PMC5463365, “Assembly and use of high-density recombinant peptide chips for large-scale ligand screening is a practical alternative to synthetic peptide libraries” (BMC Genomics, 2017).
Entries after “also recorded” stand apart in the source; their conditions may differ. Where no end group is shown, it is not given here.

Key:
Streptavidin [1] = target: T1, Streptavidin (Streptomyces avidinii, UniProt P22629); experiment: Recombinant peptide chip screen with HRP- or Europium-labeled Streptavidin; type: binding; conditions: for effect of dimerisation on chip signal/affinity: 12 glycine linker spaced dimer versus monomer, HRP-Streptavidin signal
T1 construct: purchased ForteBio
Protocol: Competent E. coli One Shot® BL21 Star™ (DE3) cells (Thermo Fisher Scientific) carrying the gene for T7 RNA polymerase under control of isopropyl β-D-1-thiogalactopyranoside (IPTG)-inducible lacUV5 promotor were transformed with respective expression libraries, and plated onto large square Q-trays. Individual colonies were robotically picked (QPix2^xt, Genetix) into suitable 384 well plates containing liquid LB medium supplemented with 100 μg/ml ampicillin, and cultivated overnight at 37 °C. Alternative route was to directly split appropriately diluted (as confirmed by plating onto LB-amp agar plates) transformation reactions (after 1 h recovery in antibiotics-free SOC medium) into 384 well plates via a programmable Flexdrop Precision Reagent Dispenser (Perkin Elmer). The next day, clones were robotically arrayed onto a 0.45 μm pore size PROTRAN™ nitrocellulose sheet (Whatman) cut in the form of the original masterplate, applying a 1 × 1, 5 × 1, 5 × 5, or 10 × 10 pattern (such that each clone or pool is gridded in 1, 5 or 25 or 100 replicates each). Following a 6 to 8 h incubation interval on top of solid LB at 30 °C, peptide expression was achieved by transferring these membrane-imprinted clones onto LB agar plates supplemented with 1 mM IPTG, followed by a 2 h incubation interval at 37 °C. Cells were then directly lysed via transfer into a Tris-buffered saline (TBS) solution containing 0.05% Tween-20 and 3% blotting-grade milk powder. Membranes were in refined dot-blot reminiscent procedure challenged with (horseradish peroxidase) HRP- or Europium labeled Streptavidin (in 1:1000 to 1:5000 dilution in TBS-0.05% Tween) for 1 h at RT, washed 3 times in TBS-0.05% Tween, and scanned with either a ChemiDoc imaging system (Quantity One® analysis software, BioRad) after exposure to Immobilon™ Western chemiluminescent substrate (Millipore, Merck), or directly with a prototypic SpectraMax® Paradigm® multi-mode detection Platform (ScanLater™ Western Blot Detection Cartridge, Molecular Devices).
Screening parameters were first of all optimized: signal-to-background ratios and realizable detection limits were assessed by analyzing the associations between published Strep-tagI and II peptides (as well as 12G linker spaced dimer derived thereof) and either commercially available HRP- or fluorescence labeled Streptavidin. […] We next further optimized E. coli growth times (from 0 to 24 h at 2 different temperatures), induction intervals, critical cell densities required, printing conditions, lysis and detection conditions, etc. (Fig. 2).

Streptavidin [2] = target: T1, Streptavidin; set-up: method as in 4 sources, one per row (each row's own in cited_ref): ref see discussion section ([26], [33], [34]) ||| ref [35], [36] = [35]; PMID 26406477; doi:10.1371/journal.pone.0139137; 35. Fogen D Engineering Streptavidin and a Streptavidin-Binding Peptide with Infinite Binding Affinity and Reversible Binding Capability: Purification of a Tagged Recombinant Protein to High Purity vi || [36]; PMID 11722181; doi:10.1006/prep.2001.1515; 36. Keefe AD One-step purification of recombinant proteins using a nanomolar-affinity streptavidin-binding peptide, the SBP-Tag Protein Expr Purif 2001 23 3 440 446 10.1006/prep.2001.1515 11722181 ||| ref [37] = [37]; PMID 14680960; doi:10.1016/j.pep.2003.08.014; 37. Lamla T Erdmann VA The Nano-tag, a streptavidin-binding peptide for the purification and detection of recombinant proteins Protein Expr Purif 2004 33 1 39 47 10.1016/j.pep.2003.08.014 14680960 ||| ref [26], [33], [34] = [26]; PMID 8636976; doi:10.1006/jmbi.1996.0061; 26. Schmidt TG Molecular interaction between the Strep-tag affinity peptide and its cognate target, streptavidin J Mol Biol 1996 255 5 753 766 10.1006/jmbi.1996.0061 8636976 || [33]; PMID 10796988; doi:10.1016/S1050-3862(99)00033-9; 33. Skerra A Schmidt TG Applications of a peptide ligand for streptavidin: the Strep-tag Biomol Eng 1999 16 1–4 79 86 10.1016/S1050-3862(99)00033-9 10796988 || [34]; PMID 11910031; doi:10.1110/ps.4150102; 34. Korndorfer IP Skerra A Improved affinity of engineered streptavidin for the Strep-tag II peptide is due to a fixed open conformation of the lid-like loop at the binding site Protein Sci 2002 11 4; conditions: equilibrium dissociation constant; ref [35], [36]; read-out: literature KD of SBP-tag, Streptavidin; cited from earlier work

T1 sequence (P22629 25-183): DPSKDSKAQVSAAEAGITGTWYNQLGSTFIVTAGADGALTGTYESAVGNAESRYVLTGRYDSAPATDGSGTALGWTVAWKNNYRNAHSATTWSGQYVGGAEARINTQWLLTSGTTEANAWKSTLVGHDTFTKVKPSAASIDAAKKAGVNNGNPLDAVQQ

B5 dimer: B5 dimerized, spaced by an analogous 12 glycine linker (VSHPQAPFGGGGGGGGGGGGVSHPQAPF; not fully specified)
effect of dimerisation on chip signal/affinity (Streptavidin [1]): could not increase affinity by linear dimerization

Dim12G: 12 glycine (G) linker spaced dimer resembling a published Twin-conformation; fusion of Strep-tagI and Strep-tagII monomers [reference compound]
effect of dimerisation on chip signal/affinity (Streptavidin [1]): performs superior in comparison to a single monomer | binder strength on test peptide chip (Streptavidin [1]; in comparison to negative control, HRP- or fluorescence-labeled Streptavidin): higher affinity

F14.5 dimer: 12G–spaced dimeric F14.5 (CSGSYGSCGGGGGGGGGGGGCSGSYGSC; cysteine pairing not given here; also: fused to GST, end not given here)
effect of dimerisation on chip signal/affinity (Streptavidin [1]): remained fairly constant; also recorded: could not increase affinity by linear dimerization

SBP-tag: 38 AA encompassing SBP-tag
Kd (Streptavidin [2]): 2.5 nM
